Test results as given in patent US20230220008A1.

Biological target: CD137 on Jurkat reporter cells (Promega) (UniProt Q07011)
Test: cell-based or functional assay

CD137 on Jurkat reporter cells (Promega), sequence (Q07011 24-255 limits assumed): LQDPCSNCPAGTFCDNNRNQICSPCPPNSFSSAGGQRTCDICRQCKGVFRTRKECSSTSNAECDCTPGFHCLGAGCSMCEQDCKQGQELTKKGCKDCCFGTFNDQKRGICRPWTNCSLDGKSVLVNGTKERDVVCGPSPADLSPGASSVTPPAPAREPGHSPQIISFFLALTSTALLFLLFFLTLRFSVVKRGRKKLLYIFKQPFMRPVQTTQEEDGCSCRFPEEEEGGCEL

## CD137 ligand (from UniProt P41273 71-254)
  Average EC50: 0.0142 µM
  Average fold induction: 4 fold
